{"source": "patent US20170014503A1", "target": "2F5 mAb", "test": "cell-based or functional assay", "note": "Where no end group is shown, it is not given here.", "data": [{"binder": "QQEKNEQELLELDKWASLWN (not fully specified)", "note": "[SP62 peptide gp41 652-671, biotinylated]", "values": [{"measurement": "IC50 of 2F5 mAb against TND-669S Env-pseudovirus after pre-absorption with 0.3 µM peptide", "result": 0.911}]}]}
